Source: article doi:10.1101/711796

target: taxol-stabilized microtubules (UniProt Q6B856); test: co-sedimentation
Sequence of UniProt Q6B856 (Q6B856 whole entry, looked up): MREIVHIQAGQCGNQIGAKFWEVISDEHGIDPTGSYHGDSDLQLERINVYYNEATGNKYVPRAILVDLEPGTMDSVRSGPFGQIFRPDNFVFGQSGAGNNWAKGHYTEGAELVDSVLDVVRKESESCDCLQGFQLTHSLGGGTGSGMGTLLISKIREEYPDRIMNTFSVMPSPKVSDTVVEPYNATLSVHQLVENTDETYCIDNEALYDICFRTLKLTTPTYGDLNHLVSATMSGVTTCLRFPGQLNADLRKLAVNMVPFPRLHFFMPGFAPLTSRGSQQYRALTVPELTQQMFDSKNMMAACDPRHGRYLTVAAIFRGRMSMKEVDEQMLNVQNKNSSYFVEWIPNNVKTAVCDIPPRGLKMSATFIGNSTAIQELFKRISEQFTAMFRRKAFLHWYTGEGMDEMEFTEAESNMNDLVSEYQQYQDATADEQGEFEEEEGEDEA

Substance	Kd [nM]
6xHIS-tagged ZmTAN1 (TANGLED1, maize) (natural protein)	1270
HIS-TAN1-GFP (natural protein)	590
HIS-TAN1-GFP-Atto488 (natural protein)	60
